Measured values: patent US12202861B2, “Inducible, tunable, and multiplex human gene regulation using CRISPR-Cpf1” (The General Hospital Corporation, priority 2017, dated 2025)

How the values were obtained:
Format in all cases: cell-based, human
AR = assay: RT-qPCR activation of endogenous AR gene promoter in HEK293 cells; settings: single crRNA
Experimental: (§1) FIGS. 1A-1E. Targeted human endogenous gene regulation using individual crRNAs with dLbCpf1-based activators • (A) Schematic showing direct dLbCpf1-VPR and dLbCpf-p65 activator fusion proteins. • (B) Activities of dLbCpf1-p65 or dLbCpf1-VPR using single crRNAs at three endogenous human genes (HBB, AR, and NPY1R) in human HEK293 cells. Relative activation of the indicated gene promoters was measured by RT-qPCR. Three separate individual crRNAs were targeted within promoter sequence 1 kb upstream of the transcription start site for each gene. Relative mRNA expression is calculated by comparison to the control sample in which no crRNA is expressed. (C) Analysis of various crRNAs targeted to the human CD5 and CD22 promoters. 32 crRNAs (16 for each gene) were designed to target sites located within promoter sequences 1 kb upstream or 500 bps downstream of the TSS of each gene. Repetitive sequences were not targeted. After 72 hours post-transfection, cells were stained with fluorescently labeled antibody for CD5 or CD22 protein and fluorescent-positive cells were quantified by flow cytometry. Error bars represent s.e.m. for three biological replicates. […] (D) Schematic illustrating drug-inducible bi-partite dLbCpf1-based activator fusion proteins. dLbCpf1 is fused to one to four DmrA domains and VPR or p65 is fused to a DmrC domain. Because DmrA and DmrC interact only in the presence of an A/C-heterodimerizer drug (red diamond), the bi-partite activator is only reconstituted in the presence of the drug. (E) Activities of drug-inducible bi-partite dLbCpf1-based activators using single crRNAs at three endogenous human genes (HBB, AR, and NPY1R) in human HEK293 cells. Relative activation of the indicated gene promoters was measured by RT-qPCR. […] Data shown in (B) and (E) represent three biological independent replicates and error bars indicate standard deviation (SD) of three technical replicates.
(A) Schematic of an expression cassette designed to express multiple gRNAs encoded on a single transcript. The arrows indicate cleavage sites being processed by the RNase activity of dLbCpf1. (B) Schematic illustrating multiplex expression of three crRNAs each targeted to a different endogenous gene promoter in a single cell. […] Transcripts were measured in HEK293 cells using RT-qPCR with relative mRNA expression calculated by comparison to the control sample in which no crRNA is expressed. […] RNA expression was measured by RT-qPCR and relative expression shown was calculated by comparison to a control sample in which no crRNA is expressed. […] Transcripts were measured in HEK293 cells using RT-qPCR with relative mRNA expression calculated by comparison to the control sample in which no crRNA is expressed. […]

NPY1R = assay: RT-qPCR activation of endogenous NPY1R gene promoter in HEK293 cells; settings: single crRNA
Experimental: as §1
(§2) (A) Schematic of an expression cassette designed to express multiple gRNAs encoded on a single transcript. The arrows indicate cleavage sites being processed by the RNase activity of dLbCpf1. (B) Schematic illustrating multiplex expression of three crRNAs each targeted to a different endogenous gene promoter in a single cell. (C) Simultaneous activation of three endogenous human genes using crRNAs expressed from a multiplex transcript or from individual transcripts with dLbCpf1-VPR direct fusions (left panel), dLbCpf1-DmrA(×4) and DmrC-VPR fusions (middle panel), and dLbCpf1-DmrA(×4) and DmrC-p65 fusions (right panel). Transcripts were measured in HEK293 cells using RT-qPCR with relative mRNA expression calculated by comparison to the control sample in which no crRNA is expressed. (D) Activities of MST crRNA with different dLbCpf1-based activators in human U20S cells. Graphs showing activation of three endogenous human genes with dLbCpf1-VPR direct fusions, dLbCpf1-DmrA(×4) and DmrC-p65 fusions, and dLbCpf1-DmrA(×4) and DmrC-VPR fusions and crRNAs expressed from a multiplex single transcript (MST) or from transcripts encoding a single crRNA. RNA expression was measured by RT-qPCR and relative expression shown was calculated by comparison to a control sample in which no crRNA is expressed. (E) Schematic illustrating multiplex expression of three crRNAs each targeted to the same endogenous gene promoter in the same cell. (F) Activities of direct dLbCpf1-p65 or dLbCpf1-VPR fusions with sets of three crRNAs expressed from a multiplex transcript or from individual transcripts on the HBB, AR, or NPY1R endogenous gene promoters. Transcripts were measured in HEK293 cells using RT-qPCR with relative mRNA expression calculated by comparison to the control sample in which no crRNA is expressed. (G) Activities of dLbCpf1-DmrA(×4) and DmrC-VPR fusions or with dLbCpf1-DmrA(×4) and DmrC-p65 fusions with sets of three crRNAs expressed from a multiplex transcript or from individual transcripts on the HBB, AR, or NPY1R endogenous gene promoters. […]

HBB [1] = assay: RT-qPCR activation of endogenous HBB gene promoter in HEK293 cells; settings: single crRNA
Experimental: as §1, §2

HBB [2] = assay: RT-qPCR activation of HBB in U2OS cells; settings: MST crRNAs and single crRNAs
From the text: (A) Schematic of an expression cassette designed to express multiple gRNAs encoded on a single transcript. The arrows indicate cleavage sites being processed by the RNase activity of dLbCpf1. (B) Schematic illustrating multiplex expression of three crRNAs each targeted to a different endogenous gene promoter in a single cell. (C) Simultaneous activation of three endogenous human genes using crRNAs expressed from a multiplex transcript or from individual transcripts with dLbCpf1-VPR direct fusions (left panel), dLbCpf1-DmrA(×4) and DmrC-VPR fusions (middle panel), and dLbCpf1-DmrA(×4) and DmrC-p65 fusions (right panel). Transcripts were measured in HEK293 cells using RT-qPCR with relative mRNA expression calculated by comparison to the control sample in which no crRNA is expressed. […] RNA expression was measured by RT-qPCR and relative expression shown was calculated by comparison to a control sample in which no crRNA is expressed. […] Transcripts were measured in HEK293 cells using RT-qPCR with relative mRNA expression calculated by comparison to the control sample in which no crRNA is expressed. […] Transcripts were measured in HEK293 cells using RT-qPCR with relative mRNA expression calculated by comparison to the control sample in which no crRNA is expressed. […] Cells were collected at various time points and relative mRNA expression levels were measured by RT-qPCR compared to a negative control. […]

[3] = bi-partite with dLbCpf1-DmrA fusions
[4] = bi-partite with dLbCpf1-DmrA fusions, A/C heterodimerizer
[5] = bi-partite, with dLbCpf1 fusions harboring two, three or four DmrA domains

B1: DmrC-p65: CAG-DmrC-NLS-FLAG-P65; DmrC dimerization domain fused to p65 activation domain (SEQ ID NO: 50) (protein)
chain: MGSRILWHEMWHEGLEEASRLYFGERNVKGMFEVLEPLHAMMERGPQTLKETSFNQAYGRDLMEAQEWCRKYMKSGNVKDLLQAWDLYYHVFRRISKGGGSPKKKRKVSSDYKDHDGDYKDHDIDYKDDDDKAAGGGGSGSEASGSGRADALDDFDLDMLGSDALDDFDLDMLGSDALDDFDLDMLGSDALDDFDLDMLINSRSSGSPKKKRKVGSQYLPDTDDRHRIEEKRKRTYETFKSIMKKSPFSGPTDPRPPPRRIAVPSRSSASVPKPAPQPYPFTSSLSTINYDEFPTMVFPSGQISQASALAPAPPQVLPQAPAPAPAPAMVSALAQAPAPVPVLAPGPPQAVAPPAPKPTQAGEGTLSEALLQLQFDDEDLGALLGNSTDPAVFTDLASVDNSEFQQLLNQGIPVAPHTTEPMLMEYPEAITRLVTGAQRPPDPAPAPLGAPGLPNGLLSGDEDFSSIADMDFSALLGSGSGSRDSREGMFLPKPEAGSAISDVFEGREVCQPKRIRPFHPPGSPWANRPLPASLAPTPTGPVHEPVGSLTPAPVPQPLDPAPAVTPEASHLLEDPDEETSQAVKALREMADTVIPQKEEAAICGQMDLSHPPPRGHLDELTTTLESMTEDLNLDSPLTPELNEILDTFLNDECLLHAMHISTGLSIFDTSLF
modifications: misc_feature 1..2016 MMW948: CAG-DmrC-NLS-FLAG-VPR
AR; [3]
  dependence of maximal activation on A/C heterodimerizer drug: dependent on the presence of A/C heterodimerizer drug
AR; [4]
  fold activation of transcription: ~25 fold
AR; [5]
  activation of transcription: could robustly activate transcription
NPY1R; [3]
  dependence of maximal activation on A/C heterodimerizer drug: dependent on the presence of A/C heterodimerizer drug
  level of activation somewhat less than that obtained with DmrC-VPR: ~30%
NPY1R; [4]
  fold activation of transcription: ~10 fold
NPY1R; [5]
  activation of transcription: could robustly activate transcription
HBB [1]; [3]
  dependence of maximal activation on A/C heterodimerizer drug: dependent on the presence of A/C heterodimerizer drug
  level of activation somewhat less than that obtained with DmrC-VPR: ~50%
HBB [1]; [4]
  fold activation of transcription: ~20 fold
HBB [1]; [5]
  activation of transcription: could robustly activate transcription
HBB [2]
  gene activation (relative RNA expression): even greater than in HEK293s
